These results are taken from the DeepSol protein solubility set.

The data set can be described thus: soluble on expression in E. coli; label from the status in PepcDB or PDB records.
On to “MGSDKIHHHHHHMKIALDPYMIRHLPLDRLPHAVAELGYDQIELSPRSDFLDWWVMPRATRARMTAFRHALRASGVGLASLQPMYRWASPFEDERQWAVRCWKKAIEVATEMECALMVSEFGRGASPERSVGERPGANPKELCEAAWFRSMDELLPILERERIVLSVEPHPEDWIEQLQPAIDIVTNLGSPSLKLSYIAPHTFYYGDDMAAMIAQAAPILAHVRVADTFDHRKSSQLRYIVNPPGSNQIRVHQHLDIGQGEIDWDTFFRALGDAGFDGVMSSCVFAWEDRAEASSRYMRDTIQRYVDRHFDRAAAR”, for which the “soluble on expression in E. coli” value is recorded as “not soluble”.

Take “SNAGAPLKAVSAFAPPMKTQDFNLYTNEVHAKFDDYDLGMEYARQHNKPVMLDFTGYGCVNCRKMELAVWTDPKVSSIINNDYVLITLYVDNKTPLTEPVKIMENGTERTLRTVGDKWSYLQRVKFGANAQPFYVLIDNEGNPLNKSYAYDEDISKYINFLQTGLENYRKEK”: the “soluble on expression in E. coli” value is recorded as “soluble”.

As to “AVPFVEDWDLVQTLGEGAYGEVQLAVNRVTEEAVAVKIVDMKRAVDCPENIKKEICINKMLNHENVVKFYGHRREGNIQYLFLEYCSGGELFDRIEPDIGMPEPDAQRFFHQLMAGVVYLHGIGITHRDIKPENLLLDERDNLKISDFGLATVFRYNNRERLLNKMCGTLPYVAPELLKRREFHAEPVDVWSCGIVLTAMLAGELPWDQPSDSCQEYSDWKEKKTYLNPWKKIDSAPLALLHKILVENPSARITIPDIKKDRWYNKPLKKG”, the “soluble on expression in E. coli” value is listed as “soluble”.

In the case of “SASAVFEGTSLVNMFVRGCWVNGIRRLIVSRRGDEEEFFEIRTEWSDRSVLYLHRSFADLGRLCKRLRDAFPEDRSELARTPLRQGLLAIKGAHDIETRLNEVEKLLETVISMPCKYSRSEVVLTFFERSPLDQVLKNDNVHKIQPSFQSPVKISEAKEGTGALRTGVVDGCEPPGGCWELSVGLLEEHQVFLTAERIFSPRKAFLRNHEVQWILFGKHRDHSH”, the “soluble on expression in E. coli” value is reported as “soluble”.

For the sequence “MSLTYHIKTIGNNIDQIALDEIGEGFLVNQVSEAESDAFICRAQPFHDYEFSKALLAIGRAGAGFNNIPIEKCASKGIVVFNAPGGNANAVKELVLSMMIFGTRNLKPANKWLTGQKGDDNTIDGAVEHGKKAFSGSEISGKTLGVIGLGNIGSKVANDAQRLGMRVIGYDPYLSIEHAWNLSHHVKRVNDLAEIFEKADYITVHTPATDETTKMLNWKNLSKCKKGVILLNYARDEITDKEAVLKAIDEGIVRFFGTDFGSEKFYHHPQVFLTPHLGGSTAEASLNCTRMALDSVQTYLKTGEIINSVNFPRVLQELNTPYRVTLINKNVPNVVAQISLAVAAENINIANIVNRGQGDYAYTLLDLDEKDEGKLAALVSRFEAADNIIRVRLIENQSLEGHHHHHH”, the “soluble on expression in E. coli” value was “soluble”.

On to “MHTDMKSVGTVSMQEAPLLEIAVVGHTNTGKTSLIRTLLRSTSFGRVDDAAGTTRHVERATIFAGSEAVLNLHDTPGIEDVYALQDKLHLIATRNKRSTQSELLEKFVAATPLNDPLEQEAKVIRQVLRSDVLLYVIDVREPVLEKYLIEIEILGKAMKPMIPIFNFTAAHRAELDLWRKKLAAFNIYASLELDTVAFAFEAEKRLYQKIQSLLEVHYTRLQRLIDHRARVWNQLCMSAARRIAGLIITTACYREHTGDERSSAGDTSSAAIRLQDFIRQAEQHCLVDLLKMFNFTDKDIELQKIPVQNGYWQLDLFAPGVLKAYGLDIGSAALKGAAAGAGIDLMTGGLSLGVASMLGALAGTGWSTFRRYGKEIQAKIRGTRWLCVDDSTLQLLYLRQRQLLDKLMNRGHAACHTDQVSQQPERGELPDGWQQIIDMLRQNPAWGRSPGLHTDDTRQYSSIEKRLIDALLKNPAL”, for which the “soluble on expression in E. coli” value is given as “not soluble”.

As for “MYSGFTREKSDLRTEDVEITKEPFTLLIMGIEDYATDGQNGRTDSLMFATVNPKTQKISLMSIPRDSRVPIVGKNKEDKINAAHAYGGEEMAIKTVEGFLKVPVDHYVKIDFQGFKGIVDAVGGVTVDVPFDFWERSDVDYYKKIQFKQGQQELNGEEALAYVRMRKQDPNGDYGRAARQRQLLAAVAQKLNSTSTVFKIKDLTSVVGKYIKTDIPISDGLALYKKLSGFDPSTIQTLKLEGEDKKIGGIYYFLPDPNGVEAVRNEIKKELGEKVTTQENSTTKTESTPSSNSNSNEKAKKETNRNQNKTPTDPPPSTNAHAEWIMRNQQLEHHHHHH”, the “soluble on expression in E. coli” value is listed as “soluble”.

For the sequence “MAHHHHHHMNTFFLSRFRGGTFFLQKYEKIWNRAKGYHTYNYIFQNNKNIINHKKKNRNLFLYEKRNFYTSNDGKKYTKKFWNHLGFVIIPQETAYIVERLGKYNKTLLAGIHFLIPFIDKIAYVFSLKEETITIPNQTAITKDNVTLNIDGVLYIKCDNPYNSSYAIEDAVFAVTQLAQVTMRSELGKLTLDATFLERDNLNEKLVKAINESAKNWGIKCMRYEIRDIILPVNIKNAMEKQAEAERRKRAEILQSEGERESEINIAIGKKRKSILIAEGQSFAIKAKADATAEAIEIISNKIKKLDSNNAISLLVAEQYIDVFSNICKNNNTVIIPADLNNISSLISQSLSIYNNIQNSKKENNQIHTLPIQKQIHSDMNN”, the “soluble on expression in E. coli” value is “not soluble”.

As for “MHHHHHHSSGVDLGTENLYFQSNAMKHIQINPSILSADLARLGDDVKAVLAAGADNIHFDVMDNHYVPNLTFGPMVLKALRDYGITAGMDVHLMVKPVDALIESFAKAGATSIVFHPEASEHIDRSLQLIKSFGIQAGLALNPATGIDCLKYVESNIDRVLIMSVNPGFGGQKFIPAMLDKAKEISKWISSTDRDILLEIDGGVNPYNIAEIAVCGVNAFVAGSAIFNSDSYKQTIDKMRDELNKV”, the “soluble on expression in E. coli” value is reported as “soluble”.

Consider “LGSLLEVAIPKPGNVSRYKDFEDLTFYHFLFGNTALIGPYFEATERGILLKEGKINESEVGIGELIRMAVAATKKYQDANPNFGIIVLSIPLIVSLSSGASIEDAGKMATRLISKSTPLDTVELYKAIRIANPKGIPRGVKYDVYSDTSFEDLVRDGINLYKLAEISCERELVFCEWLNNYDLTYETLKLLENNLEKEDLEGKVRKTFVVLLSKYEDTLIIRKAGIQEAKKVKEMATQLLKNKITEEEFERFMYEKRDLRNPGSLADIMATAL”, for which the “soluble on expression in E. coli” value was “not soluble”.

Consider “TIPISDKITLYIGRNSANNEKLTFGFAKPDDLWLHARGASGSHCVLKGATMRHTSEIQRAAEIAAWHSSAKHSELVPVICTQKKYLKK”, for which the “soluble on expression in E. coli” value is “not soluble”.

For “MGSDKIHHHHHHMIQSYPVERSRTIQTRLVLPPDTNHLGTIFGGKVLAYIDEIAALTAMKHANSAVVTASIDSVDFKSSATVGDALELEGFVTHTGRTSMEVYVRVHSNNLLTGERTLTTESFLTMVAVDESGKPKPVPQVEPQTEEEKRLYETAPARKENRKKRAALR”, the “soluble on expression in E. coli” value is reported as “soluble”.

With “MGSDKIHHHHHHMIRREDYQYLRKLNDFRYFSIEQFDKIVGQMEFRKAKKDHILFFEGDKRDKLFLVTSGYFKVEQSDQSGTFMYTDFIRHGTIFPYGGLFTDDYYHFSVVAMTDVTYFYFPVDLFEDYSLENRLQMKHLYSKMSKLLELHELRVRNLITSSASSRVIQSLAILLVEMGKDSDTLPFQLTTTDIAQISGTTRETVSHVLRDLKKQELITIKGKYLTYLDKDYFLQYTK”, the “soluble on expression in E. coli” value is recorded as “not soluble”.

Take “MGSDKIHHHHHHMKDINMTVEKGQVAGILGITGCGKTTLLKLLYNGLKNGDRRLIWKGGNYVDAIGRARPNAVYVPQSAPDSLDPVYSVIDQIRKVMQARSVDFDQDLLEKIMSEIGRSPDMLKKKPQALSQGERHIAVVIMALMIRPSLIMMDEPTTSLDAIETLDLLGIIRRFSVQYGISFIISGTSPEVITYASDFVHVMYCGTFVESSQTEDLISNPLHPYTRMIMKMRPSIRTKDLVLDRFIYDCNDYGCPFLNYCEYARDECRSQVSIRRYNDRAGQVRSLAEIMLSAKHVYKTYLEKVSIFKWHENKVIEDFSYDFLSGTRYGIIGVSGSGKTTLASILAGYDRPDSGSIIYSKHPSDGSSIRVRNVFQDTYRFLNPVNTLEWYEKNISAISPDPKLIDKILDAVGLPLERFGSLYIDQLSGGQRQRLAFAMVLSQLPDVLILDEPFSMIDPPNAMVLFSLIRKYLDKSTVIYIDHNIDRVAYLCDHIIAFDKGRIVEEDDVKKIFETQKTEYVEKLIWASEKISSRMKRQP”: the “soluble on expression in E. coli” value is recorded as “not soluble”.

For the sequence “MTNSNDIDETAATIDTARALLKSFGFEAQRHNVRSAVTLLALAGLKPGDHWADSTTPRLGVQKIMDWSGAYWAKPYATGSREDFRKKTLRQWVDNGFAVLNPDNLNIATNSQLNEYCLSDEAAQAIRSYGTDAFESALVDFLSKASDTVRARAEALRAAMISVDLADGDEFLLSPAGQNPLLKKMVEEFMPRFAPGAKVLYIGDTRGKHTRFEKRIFEETLGLTFDPHGRMPDLVLHDKVRKWLFLMEAVKSKGPFDEERHRTLRELFATPVAGLVFVNCFENREAMRQWLPELAWETEAWVADDPDHLIHLNGSRFLGPYER”, the “soluble on expression in E. coli” value is “soluble”.

As to “MLYVVGIGPGNEEYFTKEAENALNSVDLIVCYTGYKKYIERFDTEIYVSGMTKEVERVEYALKEAENKNVALVSNGDATIYGLASLAYELNEKNLHNVTINVVSGL”, the “soluble on expression in E. coli” value was “not soluble”.

Turning to “MGSDKIHHHHHHMLPKWDNSYSVHNAKIDEQHKKLFKLAAKVEVVSDRSVSKNEVKELLAEFFNYMKDHFNDEEKYMQLIGYPNLEEHRKIHKEIIQTMINLIKDIKSTNDLKEKLYIVAKKWLLEHILYEDMKVEKWRSSSLSTDDGGDVSFEAAEDEDNEHPQFYLYTCNCPGKIHDVPYSIHQKIELQGRKFTCKTCKQAIKFYKKYS”, the “soluble on expression in E. coli” value is reported as “not soluble”.

As for “LEGTAGTITSNEWSSPTSPEGSTASGGSQALDKPIDNDAEGVWSPDIEQSFQEALAIYPPCGRRKIILSDEGKMYGRNELIARYIKLRTGKTRTRKQVSSHIQVLARRKAREIQAKLKDQAAKDKALQSMAAMSSAQIISATAFHSSMALARGPGRPAVSGFWQGALPGQAGTSHDVKPFSQQTYAVQPPLPLPGFESPAGPAPSPSAPPAPPWQGRSVASSKLWMLEFSAFLEQQQDPDTYNKHLFVHIGQSSPSYSDPYLEAVDIRQIYDKFPEKKGGLKDLFERGPSNAFFLVKFWADLNTNIEDEGSSFYGVSSQYESPENMIITCSTKVCSFGKQVVEKVETEYARYENGHYSYRIHRSPLCEYMINFIHKLKHLPEKYMMNSVLENFTILQVVTNRDTQETLLCIAYVFEVSASEHGAQHHIYRLVKE”, the “soluble on expression in E. coli” value was “soluble”.

For the sequence “MSLSYGVKLHVWGERALFTRPEMKVERVSYDIITPSAARGILEAIHWKPAIRWMVDSIQVLKPIRFESIRRNEVGGKLSAASVSKAIKAGRTDTLVSYVEEDRQQRAATLLRDVGYVIAAHFELTDKAGADDNVGKHLDIFNRRARRGQCFQAPCLGTREFPASFALIEDDAAMPAADATLAGERDLGWMLHDIDFADGMTPRFFRARMVDGQVEVPAPENGGVRAEGHHHHHH”, the “soluble on expression in E. coli” value is listed as “soluble”.

As to “MVLLVNIDDNEKWDNTVKGFENFDVYYLSGYVKAFHAHGDGEPKLFFYEDSNIKAINVFMKRDIEKDQNFSGKIPPNTFYDAATPYGYGGFLIEGNVTDESLRTLEKEYSELCLNEGIISEFVRFHPVINNSGTVSSIYDILELGRTVTIELDSREKVWEGFAGNNRNKVRKAKKSGVEIFWGRSPKLFDTFIPMYNETMDNDGASGYYYFKKDFYNSILEDLKYNSLIFYAVFEDRIISMSIILFANKQMHYHLSATDREYRNLAPTNLLLYEAACWGIENGYKTFHLGGGLGSREDSLYQFKKGFNKNSSTYFCIGKKIFDKEKYDELIKIRKQDPYFDENKLFFPLYRG”, the “soluble on expression in E. coli” value is given as “not soluble”.

Consider “RVMLRQTQYLNEAIKLMASKNLSVPFGMDCKDEYGDVARELEKTRRQLHDVIQMQINASDELATLTEVMTLSMSETKESA”, for which the “soluble on expression in E. coli” value is recorded as “not soluble”.
